Target: T1, GST-HPV-16 E6 (human papillomavirus type 16, UniProt P03126 1-158)
T1 construct: early protein 6 (E6) of human papillomavirus type 16; also called GST-E6; GST-16 E6; source: E. coli BL21, purified on glutathione Sepharose beads and kept on the beads
Assay: filter plate bead binding assay (BAP chemiluminescence); dissociation rate experiment: GST-E6 and E6AP-BAP bound to equilibrium, unbound E6AP-BAP washed away, decrease in BAP signal at each time point
Settings: both partners purified

T1 sequence (P03126 whole entry): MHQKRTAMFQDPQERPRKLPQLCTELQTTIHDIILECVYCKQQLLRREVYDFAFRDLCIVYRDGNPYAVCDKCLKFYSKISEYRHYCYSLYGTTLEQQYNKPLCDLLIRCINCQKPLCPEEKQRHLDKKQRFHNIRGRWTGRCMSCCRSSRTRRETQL

B1: E6AP-BAP fusion protein (E6AP residues 371-440 fused to bacterial alkaline phosphatase) (domain or fragment, UniProt Q05086 371-440, looked up)
chain: ASKCLKMVYYANVVGGEVDTNHNEEDDEEPIPESSELTLQELLGEERRNKKGPRVDPLETELGVKTLDCR
notes: also called FLAG-tagged E6AP-BAP; source: E. coli BL21, purified (anti-FLAG resin, glycine pH 2.5 elution)
Q: B1 was tested. Which “half-life of ligand dissociation (t1/2)” value did it give?
A: 3.6 min
